Experimental findings from US20200276322A1 (ADMINISTRATORS OF THE TULANE EDUCATIONAL FUND, published 2020) are described below.

Square brackets hold non-standard residues; d marks the D form. Ends that are not written are not given here.

This test has as its target GFP1-10 protein. Briefly: cell-based or functional assay.

With G[dR][dK][dK][dR][dR][dQ][dR][dR][dR][dP][dP][dQ]RDHMVLHEYVNAAGIT [Tat(D)-GFP-11], the “split GFP assay, GFP fluorescence against Tat-GFP-11, 40 µM, 37 °C and 22 °C” value was found to be 2 fold. As for [dR][dK][dK][dR][dW][dF][dR][dR][dR][dR][dP][dK][dW][dK][dK]RDHMVLHEYVNAAGIT [CPP-1(D)-GFP-11], the “split GFP assay, GFP fluorescence over background, 10 µM, 22 °C” value is 2.2 fold and the “split GFP assay, GFP fluorescence over background, 10 µM, 37 °C” value came to 2.1 fold.
